# Data reported in the RNAGym collection of RNA variant scans (doi:10.1021/acssynbio.7b00057).
# B1: Pistol ribozyme (parent)
# chain: GGGUCGUUGUUCCAUAAUCGCGUGGAUAUGGCACGCAAGUUUCUACCGGGCACCGUAAAUGUCCGACUGGAGCCGUUCGGGCGGCUAUAAACAGACCUCAGGCCCGAAGCGUGGCGGCACCUGCCGCCGGUGGUAAAAAAGAUCGGAAGAGCACACGUCU
# Variants of: B1
# Test: aptazyme ON/OFF ratio, guanine; higher = stronger switching; co-transcriptional cleavage with and without guanine
row,Variant,aptazyme ON/OFF ratio
1,GGGUCGCAUGUACAUAAUCGCGUGGAUAUGGCACGCAAGUUUCUACCGGGCACCGUAAAUGUCCGACUGGAGCCGUUCGGGCGGCUAUAAACAGACCUCAGGCCCGAAGCGUGGCGGCACCUGCCGCCGGUGGUAAAAAAGAUCGGAAGAGCACACGUCU,1.12
2,GGGUCGCAUGUGCAUAAUCGCGUGGAUAUGGCACGCAAGUUUCUACCGGGCACCGUAAAUGUCCGACUGGAGCCGUUCGGGCGGCUAUAAACAGACCUCAGGCCCGAAGCGUGGCGGCACCUGCCGCCGGUGGUAAAAAAGAUCGGAAGAGCACACGUCU,1.08
3,GGGUCGCAUGUUCAUAAUCGCGUGGAUAUGGCACGCAAGUUUCUACCGGGCACCGUAAAUGUCCGACUGGAGCCGUUCGGGCGGCUAUAAACAGACCUCAGGCCCGAAGCGUGGCGGCACCUGCCGCCGGUGGUAAAAAAGAUCGGAAGAGCACACGUCU,1.41
4,GGGUCGCAUGUCCAUAAUCGCGUGGAUAUGGCACGCAAGUUUCUACCGGGCACCGUAAAUGUCCGACUGGAGCCGUUCGGGCGGCUAUAAACAGACCUCAGGCCCGAAGCGUGGCGGCACCUGCCGCCGGUGGUAAAAAAGAUCGGAAGAGCACACGUCU,1.26
5,GGGUCGCAUCGGCAUAAUCGCGUGGAUAUGGCACGCAAGUUUCUACCGGGCACCGUAAAUGUCCGACUGGAGCCGUUCGGGCGGCUAUAAACAGACCUCAGGCCCGAAGCGUGGCGGCACCUGCCGCCGGUGGUAAAAAAGAUCGGAAGAGCACACGUCU,1.11
6,GGGUCGCAUCGUCAUAAUCGCGUGGAUAUGGCACGCAAGUUUCUACCGGGCACCGUAAAUGUCCGACUGGAGCCGUUCGGGCGGCUAUAAACAGACCUCAGGCCCGAAGCGUGGCGGCACCUGCCGCCGGUGGUAAAAAAGAUCGGAAGAGCACACGUCU,1.21
7,GGGUCGCAUCGGAAUAAUCGCGUGGAUAUGGCACGCAAGUUUCUACCGGGCACCGUAAAUGUCCGACUGGAGCCGUUCGGGCGGCUAUAAACAGACCUCAGGCCCGAAGCGUGGCGGCACCUGCCGCCGGUGGUAAAAAAGAUCGGAAGAGCACACGUCU,1.16
8,GGGUCGCAUCGGGAUAAUCGCGUGGAUAUGGCACGCAAGUUUCUACCGGGCACCGUAAAUGUCCGACUGGAGCCGUUCGGGCGGCUAUAAACAGACCUCAGGCCCGAAGCGUGGCGGCACCUGCCGCCGGUGGUAAAAAAGAUCGGAAGAGCACACGUCU,1.08
9,GGGUCGCAUCGGUAUAAUCGCGUGGAUAUGGCACGCAAGUUUCUACCGGGCACCGUAAAUGUCCGACUGGAGCCGUUCGGGCGGCUAUAAACAGACCUCAGGCCCGAAGCGUGGCGGCACCUGCCGCCGGUGGUAAAAAAGAUCGGAAGAGCACACGUCU,1.11
10,GGGUCGCAUCGCAAUAAUCGCGUGGAUAUGGCACGCAAGUUUCUACCGGGCACCGUAAAUGUCCGACUGGAGCCGUUCGGGCGGCUAUAAACAGACCUCAGGCCCGAAGCGUGGCGGCACCUGCCGCCGGUGGUAAAAAAGAUCGGAAGAGCACACGUCU,1.18
11,GGGUCGCAUCGCUAUAAUCGCGUGGAUAUGGCACGCAAGUUUCUACCGGGCACCGUAAAUGUCCGACUGGAGCCGUUCGGGCGGCUAUAAACAGACCUCAGGCCCGAAGCGUGGCGGCACCUGCCGCCGGUGGUAAAAAAGAUCGGAAGAGCACACGUCU,1.19
12,GGGUCGCAUCGCGAUAAUCGCGUGGAUAUGGCACGCAAGUUUCUACCGGGCACCGUAAAUGUCCGACUGGAGCCGUUCGGGCGGCUAUAAACAGACCUCAGGCCCGAAGCGUGGCGGCACCUGCCGCCGGUGGUAAAAAAGAUCGGAAGAGCACACGUCU,1.04
13,GGGUCGCAUGUAAAUAAUCGCGUGGAUAUGGCACGCAAGUUUCUACCGGGCACCGUAAAUGUCCGACUGGAGCCGUUCGGGCGGCUAUAAACAGACCUCAGGCCCGAAGCGUGGCGGCACCUGCCGCCGGUGGUAAAAAAGAUCGGAAGAGCACACGUCU,1.19
14,GGGUCGCAUGUAUAUAAUCGCGUGGAUAUGGCACGCAAGUUUCUACCGGGCACCGUAAAUGUCCGACUGGAGCCGUUCGGGCGGCUAUAAACAGACCUCAGGCCCGAAGCGUGGCGGCACCUGCCGCCGGUGGUAAAAAAGAUCGGAAGAGCACACGUCU,1.17
15,GGGUCGCAUGUAGAUAAUCGCGUGGAUAUGGCACGCAAGUUUCUACCGGGCACCGUAAAUGUCCGACUGGAGCCGUUCGGGCGGCUAUAAACAGACCUCAGGCCCGAAGCGUGGCGGCACCUGCCGCCGGUGGUAAAAAAGAUCGGAAGAGCACACGUCU,1.13
16,GGGUCGCAUGAAUAUAAUCGCGUGGAUAUGGCACGCAAGUUUCUACCGGGCACCGUAAAUGUCCGACUGGAGCCGUUCGGGCGGCUAUAAACAGACCUCAGGCCCGAAGCGUGGCGGCACCUGCCGCCGGUGGUAAAAAAGAUCGGAAGAGCACACGUCU,1.21
17,GGGUCGCAUGAAAAUAAUCGCGUGGAUAUGGCACGCAAGUUUCUACCGGGCACCGUAAAUGUCCGACUGGAGCCGUUCGGGCGGCUAUAAACAGACCUCAGGCCCGAAGCGUGGCGGCACCUGCCGCCGGUGGUAAAAAAGAUCGGAAGAGCACACGUCU,1.35
18,GGGUCGCAUGAAGAUAAUCGCGUGGAUAUGGCACGCAAGUUUCUACCGGGCACCGUAAAUGUCCGACUGGAGCCGUUCGGGCGGCUAUAAACAGACCUCAGGCCCGAAGCGUGGCGGCACCUGCCGCCGGUGGUAAAAAAGAUCGGAAGAGCACACGUCU,1.09

row,Variant,aptazyme ON/OFF ratio
1,GGGUCGCAUCGUAAUAAUCGCGUGGAUAUGGCACGCAAGUUUCUACCGGGCACCGUAAAUGUCCGACUGGAGCCGUUCGGGCGGCUAUAAACAGACCUCAGGCCCGAAGCGUGGCGGCACCUGCCGCCGGUGGUAAAAAAGAUCGGAAGAGCACACGUCU,1.12
2,GGGUCGCAUCGUUAUAAUCGCGUGGAUAUGGCACGCAAGUUUCUACCGGGCACCGUAAAUGUCCGACUGGAGCCGUUCGGGCGGCUAUAAACAGACCUCAGGCCCGAAGCGUGGCGGCACCUGCCGCCGGUGGUAAAAAAGAUCGGAAGAGCACACGUCU,1.15
3,GGGUCGCAUCGUGAUAAUCGCGUGGAUAUGGCACGCAAGUUUCUACCGGGCACCGUAAAUGUCCGACUGGAGCCGUUCGGGCGGCUAUAAACAGACCUCAGGCCCGAAGCGUGGCGGCACCUGCCGCCGGUGGUAAAAAAGAUCGGAAGAGCACACGUCU,1.13
4,GGGUCGCAUGAGGAUAAUCGCGUGGAUAUGGCACGCAAGUUUCUACCGGGCACCGUAAAUGUCCGACUGGAGCCGUUCGGGCGGCUAUAAACAGACCUCAGGCCCGAAGCGUGGCGGCACCUGCCGCCGGUGGUAAAAAAGAUCGGAAGAGCACACGUCU,1.22
5,GGGUCGCAUGAGAAUAAUCGCGUGGAUAUGGCACGCAAGUUUCUACCGGGCACCGUAAAUGUCCGACUGGAGCCGUUCGGGCGGCUAUAAACAGACCUCAGGCCCGAAGCGUGGCGGCACCUGCCGCCGGUGGUAAAAAAGAUCGGAAGAGCACACGUCU,1.21
6,GGGUCGCAUGAACAUAAUCGCGUGGAUAUGGCACGCAAGUUUCUACCGGGCACCGUAAAUGUCCGACUGGAGCCGUUCGGGCGGCUAUAAACAGACCUCAGGCCCGAAGCGUGGCGGCACCUGCCGCCGGUGGUAAAAAAGAUCGGAAGAGCACACGUCU,1.34
7,GGGUCGCAUGAGCAUAAUCGCGUGGAUAUGGCACGCAAGUUUCUACCGGGCACCGUAAAUGUCCGACUGGAGCCGUUCGGGCGGCUAUAAACAGACCUCAGGCCCGAAGCGUGGCGGCACCUGCCGCCGGUGGUAAAAAAGAUCGGAAGAGCACACGUCU,1.21
8,GGGUCGCAUGUGAAUAAUCGCGUGGAUAUGGCACGCAAGUUUCUACCGGGCACCGUAAAUGUCCGACUGGAGCCGUUCGGGCGGCUAUAAACAGACCUCAGGCCCGAAGCGUGGCGGCACCUGCCGCCGGUGGUAAAAAAGAUCGGAAGAGCACACGUCU,1.12
9,GGGUCGCAUGUGUAUAAUCGCGUGGAUAUGGCACGCAAGUUUCUACCGGGCACCGUAAAUGUCCGACUGGAGCCGUUCGGGCGGCUAUAAACAGACCUCAGGCCCGAAGCGUGGCGGCACCUGCCGCCGGUGGUAAAAAAGAUCGGAAGAGCACACGUCU,1.22
10,GGGUCGCAUGUGGAUAAUCGCGUGGAUAUGGCACGCAAGUUUCUACCGGGCACCGUAAAUGUCCGACUGGAGCCGUUCGGGCGGCUAUAAACAGACCUCAGGCCCGAAGCGUGGCGGCACCUGCCGCCGGUGGUAAAAAAGAUCGGAAGAGCACACGUCU,1.12
11,GGGUCGCAUGUCAAUAAUCGCGUGGAUAUGGCACGCAAGUUUCUACCGGGCACCGUAAAUGUCCGACUGGAGCCGUUCGGGCGGCUAUAAACAGACCUCAGGCCCGAAGCGUGGCGGCACCUGCCGCCGGUGGUAAAAAAGAUCGGAAGAGCACACGUCU,1.41
12,GGGUCGCAUGUCUAUAAUCGCGUGGAUAUGGCACGCAAGUUUCUACCGGGCACCGUAAAUGUCCGACUGGAGCCGUUCGGGCGGCUAUAAACAGACCUCAGGCCCGAAGCGUGGCGGCACCUGCCGCCGGUGGUAAAAAAGAUCGGAAGAGCACACGUCU,1.31
13,GGGUCGCAUGUCGAUAAUCGCGUGGAUAUGGCACGCAAGUUUCUACCGGGCACCGUAAAUGUCCGACUGGAGCCGUUCGGGCGGCUAUAAACAGACCUCAGGCCCGAAGCGUGGCGGCACCUGCCGCCGGUGGUAAAAAAGAUCGGAAGAGCACACGUCU,1.08
14,GGGUCGCAUCGAUAUAAUCGCGUGGAUAUGGCACGCAAGUUUCUACCGGGCACCGUAAAUGUCCGACUGGAGCCGUUCGGGCGGCUAUAAACAGACCUCAGGCCCGAAGCGUGGCGGCACCUGCCGCCGGUGGUAAAAAAGAUCGGAAGAGCACACGUCU,1.1
15,GGGUCGCAUGUUUAUAAUCGCGUGGAUAUGGCACGCAAGUUUCUACCGGGCACCGUAAAUGUCCGACUGGAGCCGUUCGGGCGGCUAUAAACAGACCUCAGGCCCGAAGCGUGGCGGCACCUGCCGCCGGUGGUAAAAAAGAUCGGAAGAGCACACGUCU,1.27
16,GGGUCGCAUGUUGAUAAUCGCGUGGAUAUGGCACGCAAGUUUCUACCGGGCACCGUAAAUGUCCGACUGGAGCCGUUCGGGCGGCUAUAAACAGACCUCAGGCCCGAAGCGUGGCGGCACCUGCCGCCGGUGGUAAAAAAGAUCGGAAGAGCACACGUCU,1.25
17,GGGUCGCAUGUUAAUAAUCGCGUGGAUAUGGCACGCAAGUUUCUACCGGGCACCGUAAAUGUCCGACUGGAGCCGUUCGGGCGGCUAUAAACAGACCUCAGGCCCGAAGCGUGGCGGCACCUGCCGCCGGUGGUAAAAAAGAUCGGAAGAGCACACGUCU,1.1
18,GGGUCGCAUGACCAUAAUCGCGUGGAUAUGGCACGCAAGUUUCUACCGGGCACCGUAAAUGUCCGACUGGAGCCGUUCGGGCGGCUAUAAACAGACCUCAGGCCCGAAGCGUGGCGGCACCUGCCGCCGGUGGUAAAAAAGAUCGGAAGAGCACACGUCU,1.05
